Assay: soluble on expression in E. coli; label from the status in PepcDB or PDB records

Sequence	soluble on expression in E. coli
MGSDKIHHHHHHAKESEQKVTIDSAKHEKHTKDKEENNSANTVFFDKINDLLVASVKEFEGTVGISYLDLETGEQRSVNGQHEFYTASTIKVPLTMLVADTVASGQKKWTDLIPYNAEEDYEEGTGIIAYNIQPEYPLKTLQEYAITYSDNIAKNMLYDTLGGDAKAKREMYQRYLHKTPSIEEPQFSSEDALVILQKLYTEKATKPDYQAIYDSMKQSVFHERMETPTTQGKVAHKIGSYDEFIHDMGILETPHPFALAIFTKGPDNAKSAAFIASVTDKLWQLQVSEYPNQ	not soluble
MPNCPNCQKPVYFAERVSSLGKDWHRPCLKCANKACGKTLSAGSHSEHEGKPYCNRCYGALFGPKGYGHGGTESHTFLQGTTGN	soluble
MKIVAFNGSPRKGGNTELLIKEVFKPIQEAGIETELVQLGGKLLRGCASCYTCFKTKDGKCAIKTDPMNEFIQKAQEADGIILASPTYYGSVSAEMKAFMDRLGLTTIGQGRTLTRKVGAAVISVRRGGAVTVYDELNRFMLGSGMIVPGSTYWNFGIGEMPGEVFDDAEGLRNMKDLGVQLAWLLKAIHNLEHHHHHH	soluble
MSLTMPAESAATVRGRRYPADPEWFCDFRTFPVQGLGPEVGVHRRDPSSVLTVDGRYHVWYTRSTGETDGFGTGDPMAKVFPWDWSEIWHATSDDGATWVEQGRALGRGEPGSYDDRSVFTPEVLEHQGWFYLVYQVIRSPYALRSFESIAMAKAPSPDGPWVRSPQPILRPQADGEWAGEEDNRLSVVSQGSFDSHKVHDPILVPFQGRFFLYYKGEQMGEGFSAGGRTTRWGLAIADDIEGPYHRCPANPVTNSGHETCVWRYGDGIAAMLTTDGPERNTIQFAPDGINFEIMAHIANPPVATGPLRLPDHAVAPLDGVRWGLCHDVTASWHYIQGFAADERQKMFYTRGLSPETAESAEADALPAPHEKEGHHHHHH	soluble
MSLDTIKVGFNIPLTGDIPKVGESSKFAAEILKGEINAAGGLKVGDKTYQLEFIYEDNESKAESATATALKLITQDGVLAIIGPQSSKQAIPAGQVCNDNKTPMISPWSTNPKTTENRPYVFRACFLDPFQGPVAAKFVTEEFKAKKAAVLYDIASDYPKGLAEFFKDAFEKIHGPGSVVAFETFTTKDKDFSAQLTKIVASGADVLFTPQYYDEVPLIVKQAQELGWKKPIMGSDSWGSAELMKLCGDACKGYCFSTHYAAAGAKGATKEFIDKYNTKYGYVPDDVAALTWDAINLLFTAVKNTGGLSGNLDKDRDAIKDKLTQVKDFEGITGKMTFAPGGNPTKCAVVVKISDKGEFEFFKSEGHHHHHH	soluble
MEEVIWEQYTVTLQKDSKRGFGIAVSGGRDNPHFENGETSIVISDVLPGGPADGLLQENDRVVMVNGTPMEDVLHSFAVQQLRKSGKIAAIVVKRPRKVQVAPLQGSPPLSHDDRGFEVIEEFDGRSFRSGYSERSRHSSHDMLSHSWEGNRERGRPHQRTQSRERERSRGRSLERGLDQEDYGRSRERSRGRSLERGLDRDFVSRDHSRGRSIDRDYDRDYERSYHEAYEPDYGGGYSPSYDRRAHPETRYERSRSREHLRSRSPSPESRSRHEHKGQHDPDRPIGVLLTKSKANEEYGLRLGSQIFIKEMTRTGLATKDGNLHEGDIILKINGTVTENMSLTDARKLIEKSRGKLQLVVLRDSKQTLINIPALNDSDSEVEDISEIESNRSFSPEERRQQYSDQDYHSSTEKLKERPSSREETSGRLSRMGATPTPFKSTGDITAAGVTEASREPRYQEEGPVPQPRTAPRVFLRPSPEDEAIYGPNTKMVRFKKGDSVGLRLAGGNDVGIFVAGIQEGTSAEQEGLQEGDQILKVNTQGFRGLVREDAVLYLLEIPKGETVTILAQSRADVYRDILACGRGDSFFIRSHFECEKETPQSLAFTRGEVFRVVDTLYDGKLGHWLAVRIGNELEKGLIPNKSRAEQMASVQNAQRENAGDRADFWRMRGQRSSGGVKKNLRKSREDLAAAVSVSTKFPAYEKVLLREAGFKRPVVLFGPIADIAMERSTELPDLFQTAKTEPKDAGSEKSSGVVRLNTVRQIIEQDKHALLDVTPKAVDLLNYTQWFPIVIFFNPDSRQGVKTIRQRLSPTSNKSSRKLFDQANKLKKTCSHLFTATINVNSANDGWFGSLKDSIQQQQNEAVWVSEGKMEGMDDDAEDRMSYLTAMGADYLSCDSRLISDFEDTDGEGGAYTDNELEEPAEEPLVSSITRSSEPVQHEENIRKSSPEPRAQMRRAASRDQLRELARPQPSSQSRPKARSQNREDSFDYSKSNLPATAGSEIPGGSTKGYPPPIAAKPAFGRPILKPSTPVPMPESEEVGESTEEQEDAPRSVLGRVKIFEKMDHKAKLQRMQELQEAQNARIEIAQKHPDIYAVPIKAPKPDAGLPPHMSSGPPEPQKAPSRLYQDTRGSYGSDPEEEEYRQQLAAHSKRGYYSQPSRYRDTEL	soluble
HSQITLRGNAINTVGELPAVGSPAPAFTLTGGDLGVISSDQFRGKSVLLNIFPSVDTPVSATSVRTFDERAAASGATVLCVSKDLPFAQKRFCGAEGTENVMPASAFRDSFGEDYGVTIADGPMAGLLARAIVVIGADGNVAYTELVPEIAQEPNYEAALAALGA	soluble
MQNNSYGYAVSVRVGGKEHRHWERYDIDSDFLIPADSFDFVIGRLGPEAAIPDLSGESCEVVIDGQIVMTGIIGSQRHGKSKGSRELSLSGRDLAGFLVDCSAPQLNVKGMTVLDAAKKLAAPWPQIKAVVLKAENNPALGKIDIEPGETVWQALTHIANSVGLHPWLEPDGTLVVGGADYSSPPVATLCWSRTDSRCNIERMDIEWDTDNRFSEVTFLAQSHGRSGDSAKHDLKWVYKDPTMTLHRPKTVVVSDADNLAALQKQAKKQLADWRLEGFTLTITVGGHKTRDGVLWQPGLRVHVIDDEHGIDAVFFLMGRRFMLSRMDGTQTELRLKEDGIWTPDAYPKKAEAARKRKGKRKGVSHKGKKGGKKQAETAVFE	soluble
QEDVTVKSVTLITKVFPEGEKVCAVVIEYPVEIDGQKLSPDQFSVKVKTGDTYSSRTITKVYANNSGGLSFSIFNNRGKYVVLELSTEDLHSNTIVFGPNFLNTRMKLDYIVSQLVPIFDVDGNEVEPFTSKQTDEKHLIIDDFLAFTFKDPETGVEIPYRLFVPKDVNPDRKYPLVVFLHGAGERGTDNYLQVAGNRGAVVWAQPRYQVVHPCFVLAPQCPPNSSWSTLFTDRENPFNPEKPLLAVIKIIRKLLDEYNIDENRIYITGLSMGGYGTWTAIMEFPELFAAAIPICGGGDVSKVERIKDIPIWVFHAEDDPVVPVENSRVLVKKLAEIGGKVRYTEYEKGFMEKHGWDPHGSWIPTYENQEAIEWLFEQSR	soluble
MGSDKIHHHHHHMRVFNSSPPSEAQTRTRILQAAQRLFASQGFDGTTTRDLAQAAGVAEGTLFRHFPNKKAILVEVATSGWVEILTDLLTELSEMGSYKAVAQVMRRRMWNFQKNADLMRVCFMEVQFHPDLRDRIQLEVITKMTDVGEAFFQTAMDKGIYRKMDAKLVAKVFLGMFAIAGFSNNTLIEPDASPQQMQEMAEGLADIFLNGVLAKD	not soluble
MGEIQTLNEQHSVGKPVIRLSGISKSFDGKEIIGNLNLDVNHGEFLTILGPSGCGKTTVLRMIAGFETADQGQILLDDQDVTQVPAEQRHVNTVFQSYALFPHMTVFENVAFGLRMQKVPQSEIEPRVMEALRMVRLAEMAQRKPHQLSGGQQQRIAIARAVVNKPKVLLLDESLSALDYKLRKQMQSELKQLQRQLGITFIFVTHDQEEALSMSDRIIVMRSGKIEQDGSPREIYEDPKNLFVARFIGEINVFQATTIDRIDEKRIRVDIEGIESIVYYEDEVKAGDKLQVLLRPEDLRIEEIKESEEKGIVGHVTDRTYKGMTLESVVELESGMCVMVSEFFNEDDPDVDHSIGQKVAVTWVESWEVVLNDEQKA	not soluble
IQRQMFPNIEVNYIDVRATYPGASPQEIEESILVKVEESIKDVTGIKKVVSRASRGSAYISIEVDVNADIKRVLDDVNQRIDTISNLPLGMEPINVYQVEWRQDVIEMGLVGDRPLEELKPIAKQIEDELLQLNNVMLVYLSAPEEEIAIEVDPLVLRKYDLTLNDVSNAIRRYSANFSAGEVKTNSGMIAVRIENQYYRGDEFRNIPVKLGANGAKVLLQDIATIKDGFTEEERYFEYSGQNAIYMSVEATRDQNIIPVAQSVRDYIEAKNKTLPSDVQLKILVDMTYYLNGRLDMMLK	not soluble
MAHHHHHHMVIFDDVENSNRVGGNEGGIRPIFVQLTPNAPLPSEEYLRLVALSKAPPPPDSEGSTLHSARNCRERSARVNGRRSPTKTNVRPRPPVTATQKWGDNAMSLINSKEEAVQRHEFALHVRGARYCRLLETMLDSSDLQLEPLHYDPKDPNMGRRPNGTEGNPANSLPPVILPQATQKGCVALFTYLDLITKRVPSMLSKPLRAPLEELVQPWELEFLLYSCMGDDVRNAITHIDEDGTADKRGRAPTNDTRPSYYSTILEKAPRSVDLLLEVALLSDFLLVEPLRQLTCAFIASLALNASSEEELLQLSGLQRPMTEDELEPLYYQFPFLRPDNHAKN	not soluble
MSRRSRSRSRSPKRDREERKRREDRDRDRERKRDRKDRERKRRHRSSSSEGSQAEPHQLGSIFREERRRRERNESPKLPPPPPPPPSDPPVDTSIPFDVSTLNEPTKKWLEEKIVEQVSARVHQLEAMMAEKATSARNEMEKMLRAQIEAEMAVELAECKKRDEESRKKCKQLEAELERKVLEAEESRKKFEEDRLAMLEQKSQLERDRAELARQKSDMKKNEQQAILNKSGNSRAPIKFKFGK	not soluble
DGISSLLKPLSKIGLDTKTFALLISMTLRFVPILSDEFSTIVDAQRSRGLSLKTGSIVKRTKTLIPMIIPLISVAFKKALTLADTMEIRGFIDAKSRTSFHQLKFQKID	not soluble
MSLRITEGSAVIEVPEAYSGPGRRSPGFYNADQVLNRDLTIDLINEFGVEKVLDGFGGSGVRGIRISLETKAKVVIAEISPSSCEIIKQNIAINNAEADLIHDNFQCVSSHIAFDYIDVDPYGSPVPYLDAAIMNVRKGGYLGITATDQSTLTGSTLNKTRRRYGAYIVNDIYRHEMGIRTLIGYIARRAAAFDRYIEPQLSIWNHHYYRVFVKVGKGVNGADKMIENIGYLNKHTTIDNSFKDVNEGPVWLSNLNNAELLEKIRDPRVSKKIEMIKHDNRLLFVDLTDIARKTSLSLPPLAKVMDEIMKHGYEAHRTSFSPTGIKTDCPYAEVSEILKAYAKREGHHHHHH	soluble
MKSLGNRQRFLRRAREELKRSIRDKVRAGGIAELDREHVVPIPRKGTGEPTFGDDKESGRRQHILPGNRTFSSGDLIPKPGGGGGYGSAAGTTESEDDFRFVLSREEVLDLFFEDLELPDLVKLNLKQVLSFKPRRAGFAASGAPTNINVGRTMRNSHGRRIALRRPKQAELDAIARQIAELEAKPASALVRERIAALREALDRLERRRKRIAYVDPVDIRFNRFDPQPLPNANAVMFCLMDVSGSMGEREKDLAKRFFVLLHLFLTRRYERTDIVFIRHTHLAKEVDEHTFFYHTESGGTVVSTALEEMHRIIEQRYPVAEWNIYAAQASDGDNFAGDSERCIELLDRKLMRLCQYFAYVEIIDERESHIFGATENGTSLWRAYNAVDGKWPNFQMRRIAAPADIYPVFRQLFARQPDLRKSALEHHHHHH	soluble
SVGTAGISLLLLWYHKVRKPGIAMKLPEFLSLGNTFNSITLQDEIHDDQGTTVIFQERQLQILEKLNELLTNMEELKEEIRFLKEAIPKLEEYIQDELGGKITVHKISPQHRARKRRLPTIQSSATSNSSEEAESEGGYITANTDTEEQSFPVPKAFNTRVEELNLDVLLQKVDHLRMSESGKSESFELLRDHKEKFRDEIEFMWRFARAYGDMYELSTNTQEKKHYANIGKTLSERAINRAPMNGHCHLWYAVLCGYVSEFEGLQNKINYGHLFKEHLDIAIKLLPEEPFLYYLKGRYCYTVSKLSWIEKKMAATLFGKIPSSTVQEALHNFLKAEELCPGYSNPNYMYLAKCYTDLEENQNALKFCNLALLLPTVTKEDKEAQKEMQKIMTSLKR	soluble

— the DeepSol protein solubility set
